The values below come from patent US20200206358A1, “LONG-CIRCULATING THERANOSTIC AGENTS FOR DIAGNOSING AND IMAGING METASTATIC TUMORS” (The Board of Trustees of the Leland Stanford Junior …, priority 2018, published 2020).

The term IC50 denotes the concentration at which inhibition is half-maximal. A high value points to a need for much substance.

Non-standard residues stand in square brackets, D forms with d. Residues, ends and D or L forms follow the SMILES beside them. ξ: configuration not given here. *: point of attachment. X1 = Cc1cc(-c2ccc(N*)c(C)c2)ccc1N=Nc1ccc2c(S(=O)(=O)O)cc(S(=O)(=O)O)c(N)c2c1O; DOTA = O=C(O)CN1CCN(CC(=O)O)CCN(CC(=O)*)CCN(CC(=O)O)CC1; ξE = NC(CCC(=O)O)C(=O)O

Data set [1] is described as follows: cell uptake of [^64Cu]DOTA-EB-TMTP1. It is filed as cell-based. As to conditions: n=4, mean±SD; uptake ratio increased with time.
The nature of data set [2]: microPET/CT imaging, time activity curves in 143B tumor bearing nude mice. It counts as in vivo. As to conditions: mouse, in vivo, iv; 8 h after i.v. injection, 143B tumor bearing nude mice; read-out: tumor uptake (plateau, PET time activity curve). As for the experimental part:
(§1) The tumor uptake of [^64Cu]DOTA-EB-TMTP1 was increased as time goes by, and reached the plateau of 6.5±0.8% ID/g at 8 h after injection.

Another data set concerns 143B tumor. The data set is described as above. It counts as in vivo. Here is the method: as §1
The next data set in a line: in vivo. The arrangement: species or system nude mice. To be noted: nude, mouse, iv. The source says:
Tumor uptake was 6.7[…]% ID/g.

Another data set relates to 143B cells. Briefly: inhibition of [^64Cu]DOTA-EB-TMTP1 binding to 143B cells by TMTP1. To be noted: TMTP1 competing with [^64Cu]DOTA-EB-TMTP1 on 143B cells; unit inferred.
Data set [3] deals with highly metastatic tumor cells. To be noted: literature, PLOS One (2012) 7(9): e42685; cited from earlier work.

On to `Cc1cc(-c2ccc(NC(=O)CCC(NC(=O)CN3CCN(CC(=O)O)CCN(CC(=O)O)CCN(CC(=O)O)CC3)C(=O)NCC(=O)N[C@@H](CC(N)=O)C(=O)N[C@H](C(=O)N[C@H](C(=O)N[C@@H](CCCNC(=N)N)C(=O)N[C@@H](CCC(N)=O)C(=O)O)C(C)C)C(C)C)c(C)c2)ccc1N=Nc1ccc2c(S(=O)(=O)O)cc(S(=O)(=O)O)c(N)c2c1O` (some centres unmarked) [[^64Cu]DOTA-EB-TMTP1, metal not drawn] ({DOTA}-[ξE](X1)GNVVRQ-OH), for which, in data set [1], the “time at which cell uptake ratio reached the peak” value was 45 min. For the same molecule, the tissue uptake at 8 h in data set [2] is 6.5 ± 0.8 %ID/g. Moreover, the “tumor uptake (plateau, PET time activity curve)” value in the data set with 143B tumor (8 h after i.v. injection, 143B tumor bearing nude mice) was 6.5%±0.8 % ID/g. For the same molecule, in the data set with 143B tumor (mouse, in vivo), the “circulation time in the body” value was “long circulation time” and the pharmacokinetic properties entry is on record as “favorable pharmacokinetic properties”. This molecule also showed a tissue uptake at 48 h in the data set “in vivo” of 6.7 %ID/g.

Take NVVRQ [TMTP1]: the IC50 in the data set with 143B cells came out at 211 nM. The “affinity for a series of highly metastatic tumor cells” value in data set [3] is listed as “high affinity”.
